The target of experiment [1] is T1, FcγRIIB-Fc fusion protein (soluble dimeric FcγRIIB) (human, UniProt P31994 43-217).
T1 construct: extracellular domain; the suffix agl in 2bfcagl is not explained; also called FcRIIB-Fc; FcγRIIB-G2; not shown: hinge-CH2-CH3 domain of human IgG2
T1 sequence (looked up): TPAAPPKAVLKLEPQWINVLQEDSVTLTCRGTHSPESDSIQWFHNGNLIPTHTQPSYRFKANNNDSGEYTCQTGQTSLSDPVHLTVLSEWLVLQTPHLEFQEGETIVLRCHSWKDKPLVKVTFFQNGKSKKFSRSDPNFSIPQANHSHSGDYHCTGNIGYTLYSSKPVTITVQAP
Description: ELISA.

The target in experiment [2] is T2, soluble monomeric FcγRIIIA-linker-AVITAG (158V), biotinylated (human, UniProt P08637 17-203, biotin on the AVITAG lysine (BirA)).
T2 construct: range 1-203; used as monomer in ELISA and BIAcore; also called FcR3A; FcRIIIa; not shown: linker-AVITAG (15 aa AVITAG) at the C-terminus; only the coding oligonucleotide is given
Nature of the experiment: ELISA.

The target in experiment [3] is T2, soluble monomeric …. Description: SPR.
In experiment [4] the target is T1, FcγRIIB-Fc fusion protein (soluble …). Nature of the experiment: SPR.
The target of experiment [5] is T2, soluble monomeric …. Nature of the experiment: ELISA. The source holds these as a separate data set.
The target in experiment [6] is T1, FcγRIIB-Fc fusion protein (soluble …). Nature of the experiment: ELISA. The source holds these as a separate data set.
Experiment [7] deals with T2, soluble monomeric …. Description: SPR. This is another data set of the same source.
Experiment [8] has as its target T1, FcγRIIB-Fc fusion protein (soluble …). Nature of the experiment: ELISA. The source holds these as a separate data set.
Experiment [9] has the same target. Nature of the experiment: SPR. This is another data set of the same source.
The target of experiment [10] is T2, soluble monomeric …. Description: ELISA. The source holds these as a separate data set.

Where two headings read alike, the source gives them in different places.

T2 sequence (P08637 17-203 F176V limits assumed, form in doubt): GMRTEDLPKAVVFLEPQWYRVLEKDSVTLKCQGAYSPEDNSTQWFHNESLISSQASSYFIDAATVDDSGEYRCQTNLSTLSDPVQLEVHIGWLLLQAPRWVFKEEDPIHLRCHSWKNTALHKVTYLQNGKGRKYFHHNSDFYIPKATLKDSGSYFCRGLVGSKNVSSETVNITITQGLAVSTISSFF

B1: ch4-4-20 K317N, F423-deleted (antibody)
chain: EPKSCDKTHTCPPCPAPELLGGPSVFLFPPKPKDTLMISRTPEVTCVVVDVSHEDPEVKFNWYVDGVEVHNAKTKPREEQYNSTYRVVSVLTVLHQDWLNGNEYKCKVSNKALPAPIEKTISKAKGQPREPQVYTLPPSREEMTKNQVSLTCLVKGFYPSDIAVEWESNGQPENNYKTTPPVLDSDGSFFLYSKLTVDKSRWQQGNVSCSVMHEALHNHYTQKSLSLSPGK
In the case of B1, the fold vs wt in experiment [1] turned out to be 7 x increase.

B2: ch4-4-20 G316D, A378V, D399E (antibody)
chain: ASTKGPSVFPLAPSSKSTSGGTAALGCLVKDYFPEPVTVSWNSGALTSGVHTFPAVLQSSGLYSLSSVVTVPSSSLGTQTYICNVNHKPSNTKVDKKVEPKSCDKTHTCPPCPAPELLGGPSVFLFPPKPKDTLMISRTPEVTCVVVDVSHEDPEVKFNWYVDGVEVHNAKTKPREEQYNSTYRVVSVLTVLHQDWLNDKEYKCKVSNKALPAPIEKTISKAKGQPREPQVYTLPPSRDELTKNQVSLTCLVKGFYPSDIVVEWESNGQPENNYKTTPPVLESDGSFFLYSKLTVDKSRWQQGNVFSCSVMHEALHNHYTQKSLSLSPGK
B2: the fold vs wt was determined as 1.5 x increase in [2], 14 x increase in [1], 1.5 X in experiment [5] and 14 X in [6]. In addition, the values for the dissociation constant Kd in [3] and in experiment [4] were 72 nM and 46 nM, respectively. For the same molecule, the koff in experiment [3] worked out at 0.117 s⁻¹; in experiment [4], 0.06 s⁻¹.

B3: ch4-4-20 K334E, T359N, T366S (antibody)
chain: ASTKGPSVFPLAPSSKSTSGGTAALGCLVKDYFPEPVTVSWNSGALTSGVHTFPAVLQSSGLYSLSSVVTVPSSSLGTQTYICNVNHKPSNTKVDKKVEPKSCDKTHTCPPCPAPELLGGPSVFLFPPKPKDTLMISRTPEVTCVVVDVSHEDPEVKFNWYVDGVEVHNAKTKPREEQYNSTYRVVSVLTVLHQDWLNGKEYKCKVSNKALPAPIEETISKAKGQPREPQVYTLPPSRDELNKNQVSLSCLVKGFYPSDIAVEWESNGQPENNYKTTPPVLDSDGSFFLYSKLTVDKSRWQQGNVFSCSVMHEALHNHYTQKSLSLSPGK
Take B3: the fold vs wt was found to be 1.5 x increase in experiment [2] and 1.5 X in experiment [5]. Moreover, the results for the Kd in experiment [3] and in [4] were 55.2 nM and 72 nM, respectively. Also, the figures for the koff in [3] and in experiment [4] were 0.128 s⁻¹ and 0.11 s⁻¹, respectively.

B4: ch4D5 MGFc0088A (F243L, R292P, Y300L, P396L) (antibody)
chain: ASTKGPSVFPLAPSSKSTSGGTAALGCLVKDYFPEPVTVSWNSGALTSGVHTFPAVLQSSGLYSLSSVVTVPSSSLGTQTYICNVNHKPSNTKVDKKVEPKSCDKTHTCPPCPAPELLGGPSVFLLPPKPKDTLMISRTPEVTCVVVDVSHEDPEVKFNWYVDGVEVHNAKTKPPEEQYNSTLRVVSVLTVLHQDWLNGKEYKCKVSNKALPAPIEKTISKAKGQPREPQVYTLPPSRDELTKNQVSLTCLVKGFYPSDIAVEWESNGQPENNYKTTPLVLDSDGSFFLYSKLTVDKSRWQQGNVFSCSVMHEALHNHYTQKSLSLSPGK
With B4, the “Koff WT/Koff MUT” value in experiment [7] stood at 10.1 ratio.

B5: ch4D5 MGFc0074 (F243L, R292P, V305I) (antibody)
chain: ASTKGPSVFPLAPSSKSTSGGTAALGCLVKDYFPEPVTVSWNSGALTSGVHTFPAVLQSSGLYSLSSVVTVPSSSLGTQTYICNVNHKPSNTKVDKKVEPKSCDKTHTCPPCPAPELLGGPSVFLLPPKPKDTLMISRTPEVTCVVVDVSHEDPEVKFNWYVDGVEVHNAKTKPPEEQYNSTYRVVSILTVLHQDWLNGKEYKCKVSNKALPAPIEKTISKAKGQPREPQVYTLPPSRDELTKNQVSLTCLVKGFYPSDIAVEWESNGQPENNYKTTPPVLDSDGSFFLYSKLTVDKSRWQQGNVFSCSVMHEALHNHYTQKSLSLSPGK
On to B5, for which, in experiment [7], the “Koff WT/Koff MUT” value worked out at 2.56 ratio.

B6: ch4-4-20 F243I, V379L, G420V (antibody)
chain: ASTKGPSVFPLAPSSKSTSGGTAALGCLVKDYFPEPVTVSWNSGALTSGVHTFPAVLQSSGLYSLSSVVTVPSSSLGTQTYICNVNHKPSNTKVDKKVEPKSCDKTHTCPPCPAPELLGGPSVFLIPPKPKDTLMISRTPEVTCVVVDVSHEDPEVKFNWYVDGVEVHNAKTKPREEQYNSTYRVVSVLTVLHQDWLNGKEYKCKVSNKALPAPIEKTISKAKGQPREPQVYTLPPSRDELTKNQVSLTCLVKGFYPSDIALEWESNGQPENNYKTTPPVLDSDGSFFLYSKLTVDKSRWQQVNVFSCSVMHEALHNHYTQKSLSLSPGK
B6: in experiment [4], the Kd worked out at 93.4 nM and the koff is 0.101 s⁻¹.

B7: ch4-4-20 V348M, K334N, F275I, Y202M, K147T (antibody)
chain: ASTKGPSVFPLAPSSKSTSGGTAALGCLVTDYFPEPVTVSWNSGALTSGVHTFPAVLQSSGLYSLSSVVTVPSSSLGTQTYICNMNHKPSNTKVDKKVEPKSCDKTHTCPPCPAPELLGGPSVFLFPPKPKDTLMISRTPEVTCVVVDVSHEDPEVKINWYVDGVEVHNAKTKPREEQYNSTYRVVSVLTVLHQDWLNGKEYKCKVSNKALPAPIENTISKAKGQPREPQMYTLPPSRDELTKNQVSLTCLVKGFYPSDIAVEWESNGQPENNYKTTPPVLDSDGSFFLYSKLTVDKSRWQQGNVFSCSVMHEALHNHYTQKSLSLSPGK
As to B7, in experiment [2], the fold vs wt was 0.5 x increase.

B8: ch4-4-20 K288N, A330S, P396L (antibody)
chain: EPKSCDKTHTCPPCPAPELLGGPSVFLFPPKPKDTLMISRTPEVTCVVVDVSHEDPEVKFNWYVDGVEVHNANTKPREEQYNSTYRVVSVLTVLHQDWLNGKEYKCKVSNKALPSPIEKTISKAKGQPREPQVYTLPPSREEMTKNQVSLTCLVKGFYPSDIAVEWESNGQPENNYKTTPLVLDSDGSFFLYSKLTVDKSRWQQGNVFSCSVMHEALHNHYTQKSLSLSPGK
For B8, the Kd was found to be 33.4 nM in experiment [4] and 41.3 nM in experiment [9]. Also, the “ELISA, OD” value in [8] is 1.2 OD; in [10], 1 OD.

B9: ch4-4-20 E293V, Q295E, A327T (antibody)
chain: EPKSCDKTHTCPPCPAPELLGGPSVFLFPPKPKDTLMISRTPEVTCVVVDVSHEDPEVKFNWYVDGVEVHNAKTKPRVEEYNSTYRVVSVLTVLHQDWLNGKEYKCKVSNKTLPAPIEKTISKAKGQPREPQVYTLPPSREEMTKNQVSLTCLVKGFYPSDIAVEWESNGQPENNYKTTPPVLDSDGSFFLYSKLTVDKSRWQQGNVFSCSVMHEALHNHYTQKSLSLSPGK
Regarding B9, in experiment [4], the dissociation constant (Kd) was found to be 86 nM.

B10: ch4-4-20 Y319F, P352L, P396L (antibody)
chain: EPKSCDKTHTCPPCPAPELLGGPSVFLFPPKPKDTLMISRTPEVTCVVVDVSHEDPEVKFNWYVDGVEVHNAKTKPREEQYNSTYRVVSVLTVLHQDWLNGKEFKCKVSNKALPAPIEKTISKAKGQPREPQVYTLLPSREEMTKNQVSLTCLVKGFYPSDIAVEWESNGQPENNYKTTPLVLDSDGSFFLYSKLTVDKSRWQQGNVFSCSVMHEALHNHYTQKSLSLSPGK
Take B10: the Kd in [3] came to 125 nM; in experiment [4], 55.7 nM. The fold vs wt in [5] was found to be 3.5 X.

B11: ch4-4-20 T215P, K274N, A287G, K334N, L365V, P396L (antibody)
chain: PEPKSCDKTHTCPPCPAPELLGGPSVFLFPPKPKDTLMISRTPEVTCVVVDVSHEDPEVNFNWYVDGVEVHNGKTKPREEQYNSTYRVVSVLTVLHQDWLNGKEYKCKVSNKALPAPIENTISKAKGQPREPQVYTLPPSRDELTKNQVSVTCLVKGFYPSDIAVEWESNGQPENNYKTTPLVLDSDGSFFLYSKLTVDKSRWQQGNVFSCSVMHEALHNHYTQKSLSLSPGK
B11: the fold vs wt in experiment [1] is 4 x increase.
